Target: T1, melanopsin (mOPN4-Flag), on Per2:ELuc:TK:Mel cells (mouse) (UniProt Q9QXZ9)
T1 sequence: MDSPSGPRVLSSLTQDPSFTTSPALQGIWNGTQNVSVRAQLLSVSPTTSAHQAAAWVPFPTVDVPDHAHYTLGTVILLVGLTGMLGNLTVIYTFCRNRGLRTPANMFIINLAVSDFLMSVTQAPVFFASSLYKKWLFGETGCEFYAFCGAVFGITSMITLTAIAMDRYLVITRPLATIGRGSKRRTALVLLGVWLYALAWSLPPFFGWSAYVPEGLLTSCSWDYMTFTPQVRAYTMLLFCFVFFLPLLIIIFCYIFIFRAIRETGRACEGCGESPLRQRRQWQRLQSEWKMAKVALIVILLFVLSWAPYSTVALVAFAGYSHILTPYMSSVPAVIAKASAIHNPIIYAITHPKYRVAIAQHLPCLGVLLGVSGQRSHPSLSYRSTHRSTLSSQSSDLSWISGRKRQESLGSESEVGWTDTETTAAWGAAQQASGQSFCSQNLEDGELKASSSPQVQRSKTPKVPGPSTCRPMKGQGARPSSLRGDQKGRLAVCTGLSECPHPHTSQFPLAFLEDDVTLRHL
Assay: cell binding fluorescence (microplate), EC50
Details: 6-FAM-Melapt (1.405-90 ug/mL) added to adherent cells in DMEM, 15 min, washed, fluorescence 495/517 nm, n=3, cells cultured at 37 C, 5% CO2, binding pH and …

“AAAGGGGAATTCGGATCCCCGCACACGTGGAGCCAAGTCGAGTTTAATTCCCTATCGCCTGCAGAAGCTTCCGTTT [6-FAM-Melapt04]” showed a K half of 5.62 µg/mL.

“AAAGGGGAATTCGGATCCCGACCCGAAGGAGCGGTGGATAACCCCACCAAGATACGTCCTGCAGAAGCTTCCGTTT [6-FAM-Melapt01]” was tested, and the K half was 11.2 µg/mL.

“AAAGGGGAATTCGGATCCTTCACCGATACGGCTCCCTTGGCCAGACAGGAAAAAATAACTGCAGAAGCTTCCGTTT [6-FAM-Melapt08]” was tested, and the K half (Results text gives 22.5 ug/mL, not saturated at 90 ug/mL) was 45 µg/mL.

Source: publication PMC11062245
